Assay results taken from patent US8221990B2, “Screening GPR12 receptor for substances having Nesfatin-1-like action, or which regulate Nesfatin-1 action” (Teijin Pharma Limited, priority 2007, dated 2012).

How the values were obtained:
mouse GPR12 = biological target: T1, mouse GPR12 (Mus musculus, UniProt P35412); experiment: cAMP production in CHO-K1-cell stable expression system (CHO-K1-GPR12); assay type: cell-based; conditions: CHO-K1-GPR12, peptide 10^-9 M, Forskolin 10^-5 M, 30 minutes
T1 construct: expressed in transfected cells
T1 sequence (P35412 1-334): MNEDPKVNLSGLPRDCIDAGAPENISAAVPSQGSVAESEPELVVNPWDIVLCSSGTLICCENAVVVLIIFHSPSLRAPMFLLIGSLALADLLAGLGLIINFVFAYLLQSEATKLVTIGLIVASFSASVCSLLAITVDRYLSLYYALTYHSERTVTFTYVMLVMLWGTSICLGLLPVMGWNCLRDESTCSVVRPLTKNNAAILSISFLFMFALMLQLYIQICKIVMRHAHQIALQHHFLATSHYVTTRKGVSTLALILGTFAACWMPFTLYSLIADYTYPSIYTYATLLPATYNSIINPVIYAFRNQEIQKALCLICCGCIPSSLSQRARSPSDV
Method: The preparation of cells stably expressing GPR12 was conducted by a conventional method, and hereinafter described briefly. A vector (pcDNA3.1-GPR12) in which a gene (cDNA) encoding mouse GPR12 (SEQ ID NO: 8) was inserted at the downstream of a CMV promoter of pcDNA3.1 (TM) (Invitrogen Corporation) was prepared, 10 μg of the vector was mixed with 250 μL of medium OPTI-MEM™ (Invitrogen Corporation), and 10 μg of Lipofectamine™ 2000 Reagent (Invitrogen Corporation) was mixed with 250 μL of medium OPTI-MEM™, 5 minutes later both mixtures were mixed, and the resultant mixture was left over at room temperature for 20 minutes to prepare a transfection reagent. Chinese hamster ovary cells (CHO-K1) [ATCC Cat. No. CCl-61] plated onto a 6-well plate at 1.5×10^6 cells/well on the previous day in advance were washed with medium OPTI-MEM™ once, and the above-mentioned transfection reagent (vector and Lipofectamine™ 2000 Reagent) was added to the cells dropwise to perform transfection. The resultant transfected cells were incubated at 37° C. for 5 hours in a CO2 incubator, and then the medium was replaced by Ham's F12 medium. Further, the next day the medium was exchanged with Ham's F12 medium containing 100 μg/mL of Geneticin® (Invitrogen Corporation), and furthermore the next day the medium was exchanged with the same medium containing 200 μg/mL of Geneticin®, and the following day the medium was exchanged with the same medium containing 700 μg/mL of Geneticin®, and after that, culturing was continued under the conditions of 37° C. and 5% CO2 in a medium containing Geneticin® at the same concentration. […]
The measured intracellular cAMP level was evaluated in terms of a ratio (Fold) of each intracellular cAMP level with respect to the mean of the intracellular cAMP level in the (−) group that is set as unity, in which CHO-K1-GPR12 cells were cultured in the medium containing no peptide.

GPR12 = biological target: T2, GPR12 (Mus musculus, UniProt P35412); experiment: Expression of a CRE-reporter gene (pCRE-Luc luciferase) in NB41A3 cells expressing GPR12 endogenously; assay type: cell-based; conditions: NB41A3 cells transfected with pCRE-Luc, 10^-12 M to 10^-8 M, 16 hours
T2 construct: in which GPR12 was endogenously expressed; endogenous in cells; host or cells: NB41A3 cells (ATCC-CCL147), mouse brain neuroblastoma
T2 sequence (P35412 1-334): T1 sequence (P35412 1-334)
Method: NB41A3 cells (ATCC-CCL147), a cell strain derived from mouse brain neuroblastoma, in which GPR12 was endogenously expressed were used. The confluent NB41A3 cells were recovered in a 10-cm dish, plated onto 10 cm-dishes after dividing the cell colony in four quarters, and cultured for one day in Ham's F12K medium. The cells were transected with 5 μg of the reporter plasmid pCRE-Luc (Stratagene Corporation, Catalog No. 219074) in which TATA-BOX and luciferase were incorporated into downstream of CRE by a calcium phosphate method. The cells were washed with Ham's F12K medium 16 hours after the transfection. Ham's F12K medium containing no test substance (Vehicle), Ham's F12K medium containing 10^−10 M of Nesfatin-1 M30 (Mid-Segment: SEQ ID NO: 11), Ham's F12K medium containing 10^−10 M of a modified peptide M30_Ag-A (SEQ ID NO: 50) (M30_Ag-A), and Ham's F12K medium containing 10^−10 M of a modified peptide M30_MSH-A (SEQ ID NO: 51) […] were added to the cells, and the resultant mediums were cultured under the conditions of 37° C. and 5% CO2 for 16 hours. After the culturing, the cells were washed twice with phosphate-buffered saline (PBS), lysed with 4 mL of lysis buffer (an aqueous solution containing 25 mM of glycylglicine (pH 7.8), 15 mM of magnesium sulfate, 4 mM of glycol ether diaminetetraacetic acid (EGTA), 1 mM of dithiothreitol (DTT), and 1% (volume/volume) of Triton X-100). […] After adding 200 μL of 0.2 mM of d-luciferin to the diluted cell lysate, the luminescence was measured for 10 seconds by a luminometer, and the amount of luminescence (units) was determined. Further, the amount of protein in each cell lysate was measured by BCA™ Protein Assay Kit-Reducing Agent Compatible (Pearce, Catalog No. 23250), and the value obtained by dividing the amount of luminescence (units) by the amount of protein (μg) in a sample was determined as a luciferase activity. […] The cells were cultured for 16 hours, and then the level of luciferase activity was also determined.

[1] = Amount of food intake in a mouse after intraperitoneal administration; assay type: in vivo; conditions: C57BL/6J male mouse, 0.25 nmol per gram of body weight, 0 to 3 hours
Method: A 7-week-old C57BL/6J strain male mouse (CLEA Japan, Inc.) was used as an experimental animal. After purchasing the mouse, the mouse was raised at 22° C. in cycles of the 12-hour light period from 6 a.m. to 6 p.m. and the 12-hour dark period from 6 p.m. to 6 a.m. on the next morning with free access to pelleted feed (CLEA Japan, Inc., CE-2).
A 5 nmol aliquot of Nesfatin-1M30 (Mid-segment, SEQ ID NO: 11), M30_Ag-A (SEQ ID NO: 50), or M30_MSH-A (SEQ ID NO: 51) was dissolved in each 100 μL of saline, and each of the resultant solutions was administered intraperitoneally to a C57BL/6J mouse at a dose of 0.25 nmol per gram of body weight of the mouse. In the control group, only saline (Vehicle) was administered. Each mouse (5 mice in each group) was intraperitoneally given a single injection of a sample using a tuberculin syringe with 26 G needle, immediately before the dark period (6 p.m.).
Each mouse administered was placed in an individual cage, and the amount of food intake was determined by measuring the decreased amount of the pelleted feed during the period from 0 to 3 hours after the administration of a test substance. In the mouse administered with each test sample, the amount of food intake during 3 hours after the administration (g/3 h) is shown in FIG. 6.

mGPR12 = biological target: T3, mGPR12 (Mus musculus, UniProt P35412); experiment: cAMP production in HeLa-cell transient expression system; assay type: cell-based; parameters: expressed in transfected cells; host or cells: HeLa cells (transient, lipofection); conditions: mGPR12-transiently expressing HeLa cells, ligand 10^-6 M
T3 sequence (P35412 1-334): T1 sequence (P35412 1-334)
Method: A GPCR expression vector prepared in Example 4 was introduced into HeLa cells by lipofection and transiently expressed.
HeLa cells were peeled off using trypsin EDTA and recovered, and plated onto a 6-well plate with 7×10^5 cells/2 mL/well to perform overnight culture using a CO2 incubator. The next day, a plasmid solution was prepared by adding 4 μg of plasmid into 250 μL of a serum-free Opti-MEM medium. On the other hand, a Lipofectamine 2000 solution was prepared by adding 10 μL of Lipofectamine 2000 (Invitrogen Corporation) into 250 μL of the serum-free Opti-MEM medium. These solutions were incubated at room temperature for 5 minutes, and the Lipofectamine 2000 solution was added bit by bit into the plasmid solution. The resultant mixture was incubated at room temperature for 20 minutes to prepare a solution for lipofection. […]
The 5× Ligand solution was added at 20 μL/well so that the final concentration may become 10^−6 M, and the plate was incubated in a CO2 incubator for 30 minutes. […] Further, in order to lyse the cells completely, the cells were frozen once at −20° C. and lysed again, and then the intracellular cAMP concentration was measured using cAMP-Screen System (Applied Biosystems, T1500).

## M30_Ag-A: human Nesfatin-1M30 with the 11th (Leu) and 13th to 17th residues from the N-terminus substituted with alanine, SEQ ID NO: 50 (PDTGLYYDEYAKAAAAALETDKHFREKLQK; Synthetic M30_Ag-A peptide)
Mouse GPR12
  intracellular cAMP level compared with the group (-) cultured in medium containing no peptide: hardly elevated
GPR12
  concentration-dependent enhancement of the luciferase activity: not found
[1]
  amount of food intake during 3 hours after the administration compared with control group (Vehicle): no difference

## M30_MSH-A: human Nesfatin-1M30 with the 22nd to 25th residues from the N-terminus substituted with alanine, SEQ ID NO: 51 (PDTGLYYDEYLKQVIDVLETDAAAAEKLQK; Synthetic M30_MSH-A peptide)
Mouse GPR12
  intracellular cAMP level compared with the group (-) cultured in medium containing no peptide: about 10 fold
GPR12
  concentration-dependent enhancement of the luciferase activity: observed
[1]
  amount of food intake during 3 hours after the administration compared with control group (Vehicle): significant decrease of the food intake

B1: mouse Nesfatin-1: recombinant mouse Nesfatin-1 (82 amino acids) expressed in Escherichia coli as a GST-His fusion protein and cleaved by thrombin (protein)
chain: VPIDVDKTKVHNTEPVENARIEPPDTGLYYDEYLKQVIEVLETDPHFREKLQKADIEEIRSGRLSQELDLVSHKVRTRLDEL
mGPR12; with Forskolin addition (2 μM)
  cAMP production: increase in cAMP production was confirmed
mGPR12; without Forskolin addition
  cAMP production: increase in cAMP production was confirmed
